Test results from patent US7858577B2, “Use of the long pentraxin PTX3 for the treatment of diseases caused by an altered activation of the growth factor FGF-2” (Sigma-Tau Industrie Farmaceutiche Riunite S.p.A., priority 2000, dated 2010).
Blank lines part the entries; values can stand above or below the molecule they belong to.

Assays:
[1] = biological target: T1, interaction between 125I-FGF-2 and plastic immobilised PTX3 (Homo sapiens, UniProt P09038+P26022); assay: 125I-FGF-2 binding to plastic immobilised PTX3 in the presence of an excess of competitor; conditions: excess of competitor: FGF-2 or Cytocrome C 100 nM, soluble PTX3 300 nM
T1 construct: made in house
T1 sequence (P09038 134-288): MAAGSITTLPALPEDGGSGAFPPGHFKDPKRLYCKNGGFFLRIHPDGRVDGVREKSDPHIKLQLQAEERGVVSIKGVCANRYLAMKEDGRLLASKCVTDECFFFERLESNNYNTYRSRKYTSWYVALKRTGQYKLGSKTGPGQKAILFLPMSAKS
T1 sequence (P26022 18-381): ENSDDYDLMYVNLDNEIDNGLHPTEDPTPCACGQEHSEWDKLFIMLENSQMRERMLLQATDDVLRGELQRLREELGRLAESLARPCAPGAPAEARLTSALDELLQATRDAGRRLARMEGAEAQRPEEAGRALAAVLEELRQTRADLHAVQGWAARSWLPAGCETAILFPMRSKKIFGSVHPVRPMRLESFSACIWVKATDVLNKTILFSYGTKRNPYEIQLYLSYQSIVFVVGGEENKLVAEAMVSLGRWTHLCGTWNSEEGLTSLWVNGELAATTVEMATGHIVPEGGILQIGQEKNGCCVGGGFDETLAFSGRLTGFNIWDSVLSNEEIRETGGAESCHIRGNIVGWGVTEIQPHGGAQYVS
Method: (§1) 96 wells plates were coated at 4° C. with 100 μl of NaHCO3 pH 9.6 containing PTX3 or C reactive protein (200 nM) or alternatively 2 μg/ml of the following proteins used as negative control: bovine serum albumin, fibronectin, gelatine or laminin. After incubation, wells were washed 3 times with PBS and blocked 2 h at room temperature with 200 μl of 1 mg/ml of BSA in PBS. At the end of incubation wells were washed 3 times with PBS and subsequently incubated with 30 ng of ^125I-FGF-2 for 2 h at room temperature. Wells were subsequently washed 3 times with PBS and bound ^125I-FGF-2 was recovered by washing each well twice with 200 μl of 2% SDS in water. Levels of ^125I-FGF-2 were measured in a gamma counter.
In a second set of experiments the binding of ^125I-FGF-2 to plastic immobilised PTX3 has been tested in the presence of an excess of both native or heat denatured cold FGF-2 (100 nM), in the presence of similar Cytocrome C concentrations or in the presence of an excess of soluble PTX3 (300 nM).

[2] = biological target: T2, FGF-2 (Homo sapiens, UniProt P09038); assay: Dissociation constant (Kd) of FGF-2/PTX3 interaction, Scatchard plot; format: binding; conditions: increasing doses of 125I-FGF-2 on plastic immobilised PTX3, Scatchard plot
T2 construct: made in house
T2 sequence (P09038 134-288): as the sequence (P09038 134-288) above
Method: With this experiment the dissociation constant (Kd) FGF-2/PTX3 interaction has been determined. For this purpose increasing doses of ^125I-FGF-2 were incubated with plastic immobilised PTX3 and binding results were analysed by Scatchard plot. […] This affinity is similar to the affinity previously calculated for the interaction of PTX3 with its physiological ligand C1q.

[3] = system: neovascularization induced in vivo by FGF-2; assay: Chick embryo chorioallantoic membrane (CAM) assay, neovascularization induced by FGF-2; conditions: gelatin sponge, FGF-2 500 ng/sponge, PTX3 5 ug/sponge, scored after 4 days
Method: The antiangiogenic potential of PTX3 was evaluated in vivo in the chick embryo chorioallantoic membrane (CAM) assay. Briefly, a window was opened in the egg shell of 3 day-old fertilized chicken eggs. At day 8, gelatin sponges were implanted on the CAMs and adsorbed with 10 ul of PBS alone or containing FGF-2 (at 500 ng/sponge) in the absence or in the presence of PTX3 (5 ug/sponge) (5-6 embryos per group).

[4] = system: FGF2MAE3F2T cells; assay: Invasive behaviour of PTX3 over-expressing FGF2MAE3F2T clones on three-dimensional fibrin gels; format: cell-based, murine; conditions: PTX3 over-expressing clones (cDNA transfection) vs parental cells, after 2 days, image analysis
Excerpt: (§2) Murine endothelial cells overexpressing FGF-2, named FGF2MAE3F2T (Gualandris et al. 1996, Cell Growth Diff. 7:147-60) were transfected with human PTX3 full length cDNA subcloned in the commercial expression vector pLXSH (Clontech).
(§3) In vitro studies on the transfected cell lines obtained were, performed to study the effect of PTX3 over-expression on FGF-2-dependent proliferation of FGF2MAE3F2T cells and their invasive behaviour on three-dimensional fibrin gels.
To evaluate the invasive behaviour of FGF2MAE3F2T clones over-expressing PTX3 on three-dimensional fibrin gels, cell aggregates were prepared on agarose-coated plates exactly as described (Gualandris et al. 1996, Cell Growth Diff. 7:147-60). These aggregates were seeded onto fibrin-coated 48 well-plates. Immediately after seeding, 250 µl of calcium-free medium containing fibrinogen (2.5 mg/ml) and thrombin (250 mU/ml) were added to each well and allowed to gel for 5 min at 37° C. Then, […] of culture medium were added on the top of the gel. In all the, experiments, the fibrinolytic inhibitor trasylol was added to the gel and to the culture medium at 200 KIU/ml to prevent the dissolution of the substrate. Formation of radially growing cell sprouts was evaluated after 2 days by computerized image analysis.

[5] = system: low affinity receptors (HSPGs) on GM7373 cells; assay: Effect of PTX3 on 125I-FGF-2 binding to low affinity receptors on endothelial cells; format: cell-based, bovine; conditions: 125I-FGF-2 10 ng/ml, 2 h at 4° C., increasing concentrations of PTX3
Method: (§4) Transformed foetal bovine aortic endothelial cells GM7373 were seeded at 80,000 cells/cm^2 in 24-well dishes in Eagle's minimal essential medium (Eagle's MEM) containing 10% FCS. After 24 h at 37° C. adherent cells were washed twice with Eagle's MEM without FCS and subsequently incubated for 2 h at 4° C. with ^125I-FGF-2 (10 ng/ml) in Eagle's MEM containing 0.15% gelatine and 20 mM HEPES pH 7.5 in the absence or in the presence of increasing concentrations of PTX3. At the end of incubation the amount of ^125I-FGF-2 bound to low (HSPGs) and high affinity receptors (FGFR) was evaluated as described by Moscatelli, 1987 J. Cell. Physiol. 131:123-30. Briefly cells were rinsed twice with 2 M NaCl in 20 mM HEPES buffer (pH 7.5) to remove ^125I-FGF-2 bound to low-affinity binding sites and twice with 2 M NaCl in 20 mM sodium acetate (pH 4.0) to remove ^125I-FGF-2 bound to high-affinity binding sites. Non-specific binding was measured in the presence of a 100-fold molar excess of unlabeled FGF-2 and subtracted from all the values.

[6] = system: MAE3F2T cells; assay: Effect on FGF-2 dependent autocrine proliferation of MAE3F2T cells; format: cell-based, murine; conditions: 72 h in 0.4% FCS; PTX3 70 nM, suramin 50 μg/ml, anti FGF-2 antibodies; cell counting
Method: In this experiment we have investigated the effect of PTX3 on the proliferation of the murine aortic endothelial cell line MAE3F2T stably transfected with an expression vector coding for FGF-2 (Gualandris et al. 1996, Cell Growth Diff. 7:147-60). These cells can proliferate in response to a autocrine loop of stimulation induced by endogenous FGF-2 (Gualandris et al. 1996, Cell Growth Diff. 7:14760). MAE3F2T cells were seeded at 10,000/cm^2 in 48-well plates in Dulbecco medium (DMEM) added with 10% FCS. After 24 h at 37° C., adherent cells were washed twice with DMEM without FCS and incubated for 72 at 37° C. in DMEM containing 0.4% FCS in the presence or not of PTX3 (70 nM), anti FGF-2 specific antibodies or suramin (50 μg/ml). Suramin is known for its capacity to sequestrate extracellular FGF-2 and inhibits its biological activities (Rusnati et al., 1996, Mol. Biol. Cell. 7:369-381). At the end of incubation cells were trypsinized and counted in a Burker chamber.

[7] = system: high affinity receptors (FGFR) on GM7373 cells; assay: Effect of PTX3 on 125I-FGF-2 binding to high affinity receptors on endothelial cells; format: cell-based, bovine; conditions: 125I-FGF-2 10 ng/ml, 2 h at 4° C., increasing concentrations of PTX3
Method: as §4

[8] = biological target: T2, FGF-2; assay: Capacity of PTX3 to bind FGF in solution (Superose 12 size exclusion chromatography, dot-blot); format: binding; conditions: FGF-2 pre-incubated with PTX3 10 min at 4° C., Superose 12 column
Method: This experiment has been performed in order to evaluate PTX3 binding to FGF-2. PTX3 has been produced as described by Bottazzi et al., 1997, J. Biol. Chem. 272:32817-32823. Human recombinant FGF-2 has been produced as described by Isacchi A. et al., Proc. Natl. Acad. Sci. U.S.A. (1991), 88:2628-32. When necessary, FGF-2 has been labelled with ^125I following the method described by Isacchi et al. (see below).
100 μl of PBS containing 1 μg of FGF-2, (or alternatively 1 μg of PTX3) were chromatographed on a size exclusion fast protein liquid chromatography Superose 12 column (Pharmacia): this column is able to separate proteins depending on their molecular weight. The column was eluted with PBS at a flow rate equal to 1 ml/minute and 1 ml fractions were collected and analyzed by dot, blot with specific antibodies for the two proteins. In order to evaluate PTX3 binding to FGF-2 the two proteins ([…] and 1 μg, respectively), were mixed in 100 μl PBS and incubated at 4° C. for 10 min. before loading onto the column. Fractions were collected and analysed by dot-blot with anti FGF-2 specific antibodies. […] In the same conditions PTX3 (450.000 D) is eluted with the void volume of the column (7 ml.) When FGF-2 pre-incubated with PTX3 for.

[9] = biological target: T2, FGF-2; assay: 125I-FGF-2 binding to plastic immobilised proteins; conditions: wells coated with 200 nM PTX3 or CRP or 2 μg/ml control proteins, 30 ng 125I-FGF-2, 2 h room temperature
Method: as §1

[10] = system: GM 7373 cells; assay: Effect of PTX3 on proliferation induced by other mitogens (FCS, DAG, TPA, EGF, VEGF); format: cell-based, bovine; conditions: 10% FCS, 5 μg/ml DAG, 10 ng/ml TPA, 30 ng/ml EGF or 30 ng/ml VEGF
Method: GM 7373 cells were seeded at 75,000 cells/cm^2 in 48-well plates in Eagle MEM containing 10% FCS. After 24 h at 37° C. adherent cells were washed twice with Eagle's MEM without FCS and subsequently incubated for 24 h at 37° C. in Eagle's MEM containing 0.4% FCS in the absence or in the presence of FGF-2 (10 ng/ml) and increasing concentrations of PTX3. At the end of incubation cells were trypsinized and counted. In a different set of experiments GM 7373 cells were treated as described above in the presence of different mitogenic stimuli: 10% FCS; 5 μg/ml dyacyl-glycerol (DAG); 10 ng/ml phorbol ester (TPA) 30 ng/ml epidermal growth factor (EGF) or 30 ng/ml vascular endothelial growth factor (VEGF). Results reported in FIG. 7 shown that PTX3 inhibits the mitogenic activity exerted on endothelial cells by FGF-2 in a dose-dependent manner with an ID50 equal to 30 nM. This value is similar to the Kd calculated for the interaction FGF-2-PTX3.

[11] = system: FGF2MAE3F2T cells; assay: Proliferation of FGF2MAE3F2T clones over-expressing PTX3; format: cell-based, murine; conditions: clones transfected with human PTX3 full length cDNA (pLXSH) vs parental cells, 0.4% FCS
Method: as §2, §3
After 24 h at 37° C., adherent cells were washed twice with DMEM without FCS and incubated for different period of time at 37° C. in DMEM containing 0.4% FCS. At the end of incubations cells were trypsinized and counted in a Burker chamber.

[12] = biological target: T2, FGF-2; assay: Capacity of biotinylated PTX3 to bind plastic immobilised FGF-2; format: binding; conditions: ELISA, streptavidin HRP, 405 nm
Method: 100 μl of NaHCO3 pH 9.6 containing 500 ng of FGF-2 or of the complement component C1q were incubated 18 h at 4° C. in 96 wells plastic plates. At the end of incubation wells were washed 3 times with PBS and subsequently incubated 2 h at room temperature with 200 μl of PBS containing 1 mg/ml of Bovine Serum Albumin (BSA). At the end of incubation wells were washed again 3 times with PBS and incubated with 30 ng/ml of ^125I-FGF-2 in presence of increasing amounts of biotinylated PTX3 in 100 μl of PBS (2 h at room temperature). Alternatively wells were adsorbed with increasing doses of FGF-2 or C1q and incubated with 100 ng/ml of biotinylated PTX3 in 100 μl of PBS. After this incubation wells were washed 3 times with PBS and incubated 1 h at room temperature with 100 μl of streptavidin HRP conjugate ( 1/2000). Reaction was developed by adding the chromogen microwell peroxidase substrate system ABTS (Kirkegaard & Perry Laboratories). Plates were read in an automatic ELISA reader at 405 nm.

inhibition of the interaction between 125I-FGF-2 and plastic immobilised PTX3 [1]: not able to bind PTX3
Molecule: heat-inactivated FGF-2: heat denatured unlabelled FGF-2 used as competitor

Kd [2]: 8 to 16 nM
inhibition of the interaction between 125I-FGF-2 and plastic immobilised PTX3 [1]: inhibited the interaction
binding of 125I-FGF-2 to plastic immobilised protein [9]: FGF-2 binds plastic immobilised PTX3
Molecule: PTX3: long pentraxin PTX3; preferred is human PTX3, sequence described in WO99/32516; produced as by Bottazzi et al. 1997
effect on neovascularization induced in vivo by FGF-2 (angiogenic response score 0-4+) [3]: able to block the neovascularization
invasive capacity on fibrin gels (radially growing cell sprouts) [4]: significantly lower
inhibition of FGF-2 binding to low-affinity receptors on endothelial cells [5]: able to inhibit in a dose-dependent manner
inhibition of FGF-2 dependent proliferation of MAE3F2T cells [6]: inhibiting their FGF-2 dependent proliferation
inhibition of FGF-2 binding to high-affinity receptors on endothelial cells [7]: able to inhibit in a dose-dependent manner
binding of PTX3 to FGF-2 in solution (change of FGF-2 chromatographic behaviour) [8]: FGF-2 was eluted from the column with a retention volume equal to PTX3 alone
inhibitory activity when other mitogens are used to induce cellular proliferation [10]: not detectable
effect of PTX3 over-expression on FGF2MAE3F2T cells proliferation [11]: inhibits FGF2MAE3F2T cells proliferation

Molecule: biotinylated PTX3: PTX3 labelled with biotin for the ELISA binding test
binding of biotinylated PTX3 to plastic immobilised FGF-2 [12]: FGF-2 immobilised on plastic wells is able to bind biotinylated PTX3

Molecule: Cc1ccc(C(=O)Nc2ccc(S(=O)(=O)O)c3cc(S(=O)(=O)O)cc(S(=O)(=O)O)c23)cc1NC(=O)c1cccc(NC(=O)Nc2cccc(C(=O)Nc3cc(C(=O)Nc4ccc(S(=O)(=O)O)c5cc(S(=O)(=O)O)cc(S(=O)(=O)O)c45)ccc3C)c2)c1 [suramin, reference compound]
inhibition of FGF-2 dependent proliferation of MAE3F2T cells [6]: in a manner similar to that exerted by anti FGF-2 antibodies and suramin

binding of 125I-FGF-2 to plastic immobilised protein [9]: reacts poorly
binding of 125I-FGF-2 to plastic immobilised protein ([9]; listed as C-reactive protein): does not bind FGF-2
Molecule: CRP: short pentraxin homologous to PTX3, used as comparison protein

inhibition of the interaction between 125I-FGF-2 and plastic immobilised PTX3 [1]: inhibited the interaction
Molecule: cold FGF-2: human recombinant growth factor FGF-2, unlabelled, used as competitor
